# Data taken from the supplement of paper PMC9170038.
# Tested on: MS2 coat protein
# Assay: apparent KD of MS2 coat protein; designed switch direction (-1 OFF switch, 1 ON switch): -1; higher = weaker reporter binding
# Conditions: Eterna round: R98
# Experimental: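 RNA-MaP: designed FMN/MS2 RNA switches (84 nt design region) are transcribed on-chip within common flanks and titrated with SNAP-549-labelled MS2 coat protein (about 1-3000 nM) in 100 mM Tris pH 7.5, 80 mM KCl, 4 mM MgCl2, without or with 200 uM FMN. Median apparent KD per design; activation ratio = KD,OFF / KD,ON.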
Sequence,apparent KD of MS2 coat protein (input ligand: FMN 200 uM),apparent KD of MS2 coat protein (input ligand: none)
UGUUGUUACGCAGGAUAUUGCCAACAGGCGGUAGGAUAUCCGAAAGGAGAAGGAUCGCCAACAGGCGAGAAGGGCGGGUUAACA [pwkr exNG2 2xF7 2FMN.10.3],26.7 nM,21.3 nM
GGUUGUUACGCAGGAUAUUGCCAACAGGCAGUAGGAUAUCCGAAAGGAGAAGGACCGCCAACAGGCGAGAAGGGCGGGUUAACC [pwkr exNG2 2xF7 2FMN.10.4],48.3 nM,35.4 nM
